Reference: patent CN117603358A (INST MICROBIOLOGY CAS; 3SBIO GROUP; SHANXI ADVANCED …, dated 2024)

B1: CoV56单抗 (antibody, V domains shown)
VH: EVQLVESGGGVVQPGGSLRLSCAVSGFTFDDYAMHWVRQAPGKGLDWVSLISGDGSYTYYADSVKGRFTISRDSSKNSLYLQMNSLRTEDTALYYCAKAQTPTLWWLQDAFDIWGQGTMVTVSS
VL: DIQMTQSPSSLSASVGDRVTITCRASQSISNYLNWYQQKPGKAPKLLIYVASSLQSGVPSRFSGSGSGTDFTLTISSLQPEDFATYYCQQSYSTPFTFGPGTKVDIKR
B2: L4.65单抗 (antibody, V domains shown)
VH: QITLKESGPTLVKPTQTLTLTCTFSGFSLSTSGVGVAWIRQPPGKALEWLALIYWDNDKRSSPSLNNRLTITKDTSKNQVVLTMTNMDPEDTATYYCAHFFSHYDSSNYYYGSWFDPWGQGTLVTVSS
VL: EIVLTQSPGTLSLSPGERATLSCRASQSFDSRYLGWYQQKSGQAPRLLIYGASSRATGIPDRFSGSGSGTDFTLTISRLEPEDFAVYYCQQFGDSPFTFGQGTKLEIKR

Columns and labels:
Assay in all cases: cell-based or functional assay
S蛋白, SARS-CoV-2 EG.5突变株 = S蛋白, SARS-CoV-2 EG.5突变株 (SARS-CoV-2 EG.5)
S蛋白, SARS-CoV-2 XBB.1.16 = S蛋白, SARS-CoV-2 XBB.1.16 (SARS-CoV-2 XBB.1.16)
S蛋白, SARS-CoV-2 BQ.1.1 [1] = biological target: S蛋白, SARS-CoV-2 BQ.1.1 (SARS-CoV-2 BQ.1.1)
S蛋白, SARS-CoV-2 BA.3 = S蛋白, SARS-CoV-2 BA.3 (SARS-CoV-2 BA.3)
S蛋白, SARS-CoV-2 BA.1.1 = S蛋白, SARS-CoV-2 BA.1.1 (SARS-CoV-2 BA.1.1)
S蛋白, SARS-CoV-2 BA.4/5 [2] = biological target: S蛋白, SARS-CoV-2 BA.4/5 (SARS-CoV-2 BA.4/5)
S蛋白, SARS-CoV-2 BA.2.75 [3] = biological target: T1, S蛋白, SARS-CoV-2 BA.2.75 (SARS-CoV-2 BA.2.75)
S蛋白, SARS-CoV-2 BA.2 = S蛋白, SARS-CoV-2 BA.2 (SARS-CoV-2 BA.2)
S蛋白, SARS-CoV-2 XBB [4] = biological target: S蛋白, SARS-CoV-2 XBB (SARS-CoV-2 XBB)
S蛋白, SARS-CoV-2 BA.1 [5] = biological target: S蛋白, SARS-CoV-2 BA.1 (SARS-CoV-2 BA.1)
S蛋白, SARS-CoV-2 BF.7 [6] = biological target: S蛋白, SARS-CoV-2 BF.7 (SARS-CoV-2 BF.7)
S蛋白, SARS-CoV-2 BQ.1 [7] = biological target: S蛋白, SARS-CoV-2 BQ.1 (SARS-CoV-2 BQ.1)
S蛋白, SARS-CoV-2 XBB.1.5 [8] = biological target: T2, S蛋白, SARS-CoV-2 XBB.1.5 (SARS-CoV-2 XBB.1.5)
S蛋白, SARS-CoV-2 BQ.1.1 [9] = biological target: S蛋白, SARS-CoV-2 BQ.1.1 (SARS-CoV-2 BQ.1.1); remark: listed apart in the source
S蛋白, SARS-CoV-2 BA.4/5 [10] = biological target: S蛋白, SARS-CoV-2 BA.4/5 (SARS-CoV-2 BA.4/5); remark: listed apart in the source
S蛋白, SARS-CoV-2 BA.2.75 [11] = biological target: T1, S蛋白, SARS-CoV-2 BA.2.75; remark: listed apart in the source
S蛋白, SARS-CoV-2 Delta = S蛋白, SARS-CoV-2 Delta (SARS-CoV-2 Delta)
S蛋白, SARS-CoV-2 XBB [12] = biological target: S蛋白, SARS-CoV-2 XBB (SARS-CoV-2 XBB); remark: listed apart in the source
S蛋白, SARS-CoV-2 BA.1 [13] = biological target: S蛋白, SARS-CoV-2 BA.1 (SARS-CoV-2 BA.1); remark: listed apart in the source
S蛋白, SARS-CoV-2 BF.7 [14] = biological target: S蛋白, SARS-CoV-2 BF.7 (SARS-CoV-2 BF.7); remark: listed apart in the source
S蛋白, SARS-CoV-2 BQ.1 [15] = biological target: S蛋白, SARS-CoV-2 BQ.1 (SARS-CoV-2 BQ.1); remark: listed apart in the source
S蛋白, SARS-CoV-2 XBB.1.5 [16] = biological target: T2, S蛋白, SARS-CoV-2 XBB.1.5; remark: listed apart in the source

Binder | 假病毒中和效果 IC50 (S蛋白, SARS-CoV-2 EG.5突变株) [µg/mL] | 假病毒中和效果 IC50 (S蛋白, SARS-CoV-2 XBB.1.16) [µg/mL] | 假病毒中和效果 IC50 (S蛋白, SARS-CoV-2 BQ.1.1 [1]) [µg/mL] | 假病毒中和效果 IC50 (S蛋白, SARS-CoV-2 BA.3) [µg/mL] | 假病毒中和效果 IC50 (S蛋白, SARS-CoV-2 BA.1.1) [µg/mL] | 假病毒中和效果 IC50 (S蛋白, SARS-CoV-2 BA.4/5 [2]) [µg/mL] | 假病毒中和效果 IC50 (S蛋白, SARS-CoV-2 BA.2.75 [3]) [µg/mL] | 假病毒中和效果 IC50 (S蛋白, SARS-CoV-2 BA.2) [µg/mL] | 假病毒中和效果 IC50 (S蛋白, SARS-CoV-2 XBB [4]) [µg/mL] | 假病毒中和效果 IC50 (S蛋白, SARS-CoV-2 BA.1 [5]) [µg/mL] | 假病毒中和效果 IC50 (S蛋白, SARS-CoV-2 BF.7 [6]) [µg/mL] | 假病毒中和效果 IC50 (S蛋白, SARS-CoV-2 BQ.1 [7]) [µg/mL] | 假病毒中和效果 IC50 (S蛋白, SARS-CoV-2 XBB.1.5 [8]) [µg/mL] | 假病毒中和活性 IC50 (S蛋白, SARS-CoV-2 BQ.1.1 [9]) [µg/mL] | 假病毒中和活性 IC50 (S蛋白, SARS-CoV-2 BA.4/5 [10]) [µg/mL] | 假病毒中和活性 IC50 (S蛋白, SARS-CoV-2 BA.2.75 [11]) [µg/mL] | 假病毒中和活性 IC50 (S蛋白, SARS-CoV-2 Delta) [µg/mL] | 假病毒中和活性 IC50 (S蛋白, SARS-CoV-2 XBB [12]) [µg/mL] | 假病毒中和活性 IC50 (S蛋白, SARS-CoV-2 BA.1 [13]) [µg/mL] | 假病毒中和活性 IC50 (S蛋白, SARS-CoV-2 BF.7 [14]) [µg/mL] | also measured
B1 | 13.6 | 21.7 | 15.9 | 18.5 | 10.8 | 7.53 | 58.8 | 8.32 | 15.9 | 14.8 | 11.7 | 19.6 | 11.8 | > 2 | > 2 | > 2 | > 2 | > 2 | > 2 | > 2 | 假病毒中和活性 IC50 (S蛋白, SARS-CoV-2 BQ.1 [15]): > 2 µg/mL; 假病毒中和活性 IC50 (S蛋白, SARS-CoV-2 XBB.1.5 [16]): > 2 µg/mL
B2 | 0.0521 | 0.0103 | 4.58 | 0.00044 | 0.00028 | 0.000377 | 0.00194 | 0.00039 | 0.00335 | 0.000394 | 0.000446 | 2.09 | 0.0137 | > 2 | 0.00138 | 0.0112 | 0.00252 | 0.0214 | 0.00135 | 0.00212 | 假病毒中和活性 IC50 (S蛋白, SARS-CoV-2 BQ.1 [15]): > 2 µg/mL; 假病毒中和活性 IC50 (S蛋白, SARS-CoV-2 XBB.1.5 [16]): 0.0541 µg/mL
